Bounds are passed on as bounds.

Kd data for 7 sequences are collected here from the Immune Epitope Database (IEDB).

Experiment [1] addresses HLA-B*39:01. The experiment can be described thus: IEDB peptide-MHC binding, purified MHC/competitive/fluorescence; filed as Kd, often an IC50 or EC50 that approximates it; ≥ and ≤ were set here for values at or beyond the usual limits of such assays.
Experiment [2] addresses HLA-A*02:01. The experiment is described as above.
The target of experiment [3] is HLA-B*57:01. Described as above.
Experiment [4] addresses HLA-B*27:03. The description is as above.
In experiment [5] the target is HLA-A*02:16. The description is as above. Conditions: source organism: Cryptosporidium parvum Iowa II.
Experiment [6] concerns the target HLA-A*02:19. The experiment is described as above.
The target in experiment [7] is HLA-A*69:01. Described as above. Conditions: source organism: Cryptosporidium parvum Iowa II.
Experiment [8] addresses HLA-B*27:05. The experiment in a line: IEDB peptide-MHC binding, purified MHC/direct/fluorescence; filed as Kd, often an IC50 or EC50 that approximates it; ≥ and ≤ were set here for values at or beyond the usual limits of such assays.
Experiment [9] addresses HLA-A*24:03. Described as above.
For experiment [10], the target named is HLA-B*44:02. Described as above.
The target of experiment [11] is HLA-A*02:01. The description is as above.
For experiment [12], the target named is HLA-B*58:01. Described as above.
Experiment [13] concerns the target HLA-A*11:01. The description is as above.
In experiment [14] the target is HLA-B*07:02. Described as above.
Experiment [15] concerns the target HLA-A*30:01. The experiment is described as above.
The target of experiment [16] is HLA-B*15:01. The description is as above.
Experiment [17] addresses HLA-A*31:01. The experiment is described as above.
The target in experiment [18] is HLA-A*01:01. Described as above.
Experiment [19] concerns the target HLA-A*03:01. The description is as above.
In experiment [20] the target is HLA-A*26:01. The experiment is described as above.
For experiment [21], the target named is HLA-A*69:01. The description is as above.
For experiment [22], the target named is HLA-B*08:01. The experiment is described as above.
The target in experiment [23] is HLA-B*40:01. Described as above.
For experiment [24], the target named is HLA-B*18:01. The description is as above. Conditions: source organism: Entamoeba histolytica HM-1:IMSS.
Experiment [25] has as its target HLA-B*57:01. Described as above. Conditions: source organism: Entamoeba histolytica HM-1:IMSS.
Experiment [26] concerns the target HLA-A*29:02. The experiment is described as above. Conditions: source organism: Entamoeba histolytica HM-1:IMSS.
Experiment [27] has as its target HLA-A*02:12. The experiment can be described thus: IEDB peptide-MHC binding, purified MHC/competitive/fluorescence; filed as Kd, often an IC50 or EC50 that approximates it; ≥ and ≤ were set here for values at or beyond the usual limits of such assays. Conditions: source organism: Entamoeba histolytica HM-1:IMSS.
Experiment [28] concerns the target HLA-B*18:01. The description is as above. Conditions: source organism: Entamoeba histolytica HM-1:IMSS.
The target of experiment [29] is HLA-A*02:03. The experiment is described as above. Conditions: source organism: Entamoeba histolytica HM-1:IMSS.
Experiment [30] deals with HLA-B*51:01. The experiment is described as above. The note with it: source organism: Entamoeba histolytica HM-1:IMSS.
The target in experiment [31] is HLA-B*46:01. Described as above. Conditions: source organism: Entamoeba histolytica HM-1:IMSS.
In experiment [32] the target is HLA-B*15:01. The experiment is described as above. The note with it: source organism: Entamoeba histolytica HM-1:IMSS.
In experiment [33] the target is HLA-A*03:01. Described as above. The note with it: source organism: Entamoeba histolytica HM-1:IMSS.
For experiment [34], the target named is HLA-A*26:01. The experiment is described as above. The note with it: source organism: Entamoeba histolytica HM-1:IMSS.
In experiment [35] the target is HLA-A*29:02. The experiment is described as above.
The mark [36] stands for this setting: source organism: Cryptosporidium parvum Iowa II.
Where [37] appears, read: source organism: Campylobacter jejuni.
[38] abbreviates: source organism: Rickettsia conorii.
[39] abbreviates: source organism: Rickettsia sibirica.
Where [40] appears, read: source organism: Entamoeba histolytica HM-1:IMSS.
Where [41] appears, read: source organism: La Crosse virus.

By Kd is commonly meant the constant that tells how readily two partners part at equilibrium. On to FLYPSWSLY, for which the dissociation constant (Kd) was at least 20 µM in [1] (setting [36]); 0.169 µM in experiment [2] (setting [36]); at least 20 µM in experiment [3] (setting [36]); at least 20 µM in experiment [4] (setting [36]); 0.101 µM in [5]; at least 20 µM in [6] (setting [36]). In experiment [7], this sequence registered a Kd of at least 20 µM.

SFGAGTLAK: the Kd in [8] (setting [37]) is at least 20 µM; in experiment [9] (setting [37]) it was at least 20 µM; in [10] (setting [37]) it was at least 20 µM; in experiment [11] (setting [37]), at least 20 µM; in experiment [12] (setting [37]), at least 20 µM; in experiment [13] (setting [37]) it was 0.383 µM. The Kd in [14] (setting [37]) was at least 20 µM; in experiment [15] (setting [37]), 0.0186 µM; in experiment [16] (setting [37]), at least 20 µM; in [17] (setting [37]), 3.9 µM; in [18] (setting [37]) it was at least 20 µM; in experiment [19] (setting [37]), 1.97 µM. Also, the Kd in experiment [20] (setting [37]), in experiment [21] (setting [37]), in experiment [22] (setting [37]) and in experiment [23] (setting [37]) was at least 20 µM in each case.

Turning to RTGDIGCFK, the Kd in experiment [8] (setting [38]) was at least 20 µM; in experiment [9] (setting [38]), at least 20 µM; in experiment [10] (setting [38]), at least 20 µM; in experiment [11] (setting [38]) it was at least 20 µM; in experiment [12] (setting [38]), at least 20 µM; in experiment [13] (setting [39]) it was 0.0688 µM. For the same sequence, the Kd in experiment [14] (setting [38]) was at least 20 µM; in experiment [15] (setting [39]) it was 0.0355 µM; in experiment [16] (setting [38]), at least 20 µM; in experiment [17] (setting [39]), 0.223 µM; in experiment [18] (setting [38]), at least 20 µM; in [19] (setting [39]), 0.836 µM. The Kd in [20] (setting [38]), in experiment [21] (setting [38]), in experiment [22] (setting [38]) and in [23] (setting [38]) was at least 20 µM throughout.

In the case of ETMKPAAMV, the Kd in experiment [24], in [10] (setting [40]), in [11] (setting [40]), in [12] (setting [40]), in experiment [25] and in [14] (setting [40]) was at least 20 µM in each case. Moreover, the Kd in experiment [15] (setting [40]) was at least 20 µM; in experiment [16] (setting [40]) it was at least 20 µM; in [18] (setting [40]), at least 20 µM; in experiment [26], at least 20 µM; in experiment [21] (setting [40]), 0.0015 µM; in [23] (setting [40]), at least 20 µM.

With YRKPSGGVF, the Kd is 0.232 µM in experiment [8] (setting [41]); 4.78 µM in experiment [9] (setting [41]); at least 20 µM in experiment [10] (setting [41]); at least 20 µM in experiment [11] (setting [41]); at least 20 µM in experiment [12] (setting [41]); at least 20 µM in experiment [13] (setting [41]). The Kd in [14] (setting [41]) was 6.06 µM; in [15] (setting [41]) it was at least 20 µM; in experiment [16] (setting [41]), 0.797 µM; in experiment [17] (setting [41]), at least 20 µM; in experiment [18] (setting [41]) it was at least 20 µM; in experiment [19] (setting [41]), at least 20 µM. The Kd in experiment [20] (setting [41]) was at least 20 µM; in experiment [21] (setting [41]), at least 20 µM; in experiment [22] (setting [41]), 0.166 µM; in experiment [23] (setting [41]), at least 20 µM.

On to KTRMEDYYL, for which the Kd is at least 20 µM in experiment [27]; at least 20 µM in experiment [28]; at least 20 µM in experiment [1] (setting [40]); at least 20 µM in [2] (setting [40]); at least 20 µM in experiment [29]; 0.151 µM in experiment [3] (setting [40]). For the same sequence, the Kd in experiment [30], in [31], in experiment [32], in [4] (setting [40]), in [33] and in [6] (setting [40]) was at least 20 µM each time. Moreover, the dissociation constant (Kd) in [34] and in experiment [35] (setting [40]) was at least 20 µM each time.

QWALLPYLF registered a Kd in experiment [35] (source organism: Brucella canis ATCC 23365) of at most 0.0001 µM.
